# B1: Angiotensin-converting enzyme 2 (Rattus norvegicus (Rat)), Q5EGZ1 (parent)
# chain: MSSSCWLLLSLVAVATAQSLIEEKAESFLNKFNQEAEDLSYQSSLASWNYNTNITEENAQKMNEAAAKWSAFYEEQSKIAQNFSLQEIQNATIKRQLKALQQSGSSALSPDKNKQLNTILNTMSTIYSTGKVCNSMNPQECFLLEPGLDEIMATSTDYNRRLWAWEGWRAEVGKQLRPLYEEYVVLKNEMARANNYEDYGDYWRGDYEAEGVEGYNYNRNQLIEDVENTFKEIKPLYEQLHAYVRTKLMEVYPSYISPTGCLPAHLLGDMWGRFWTNLYPLTTPFLQKPNIDVTDAMVNQSWDAERIFKEAEKFFVSVGLPQMTPGFWTNSMLTEPGDDRKVVCHPTAWDLGHGDFRIKMCTKVTMDNFLTAHHEMGHIQYDMAYAKQPFLLRNGANEGFHEAVGEIMSLSAATPKHLKSIGLLPSNFQEDNETEINFLLKQALTIVGTLPFTYMLEKWRWMVFQDKIPREQWTKKWWEMKREIVGVVEPLPHDETYCDPASLFHVSNDYSFIRYYTRTIYQFQFQEALCQAAKHDGPLHKCDISNSTEAGQKLLNMLSLGNSGPWTLALENVVGSRNMDVKPLLNYFQPLFVWLKEQNRNSTVGWSTDWSPYADQSIKVRISLKSALGKNAYEWTDNEMYLFRSSVAYAMREYFSREKNQTVPFGEADVWVSDLKPRVSFNFFVTSPKNVSDIIPRSEVEEAIRMSRGRINDIFGLNDNSLEFLGIYPTLKPPYEPPVTIWLIIFGVVMGTVVVGIVILIVTGIKGRKKKNETKREENPYDSMDIGKGESNAGFQNSDDAQTSF
# Variants of: B1
# Conditions: with spike_sars S
row,Variant,effect of a mutation on the interaction
1,N82M;F83Y;S84P,causing an interaction
2,H353K,causing an interaction
3,N82M;F83Y;S84P;H353K,causing an interaction

# Variants of: B1
# Conditions: with spike_sars S
# Remark: another data set of the same source
row,Variant,effect of a mutation on the interaction
1,N82M;F83Y;S84P;H353K,causing an interaction

# Source: IntAct's records for PubMed 15791205
